Numbering of substitutions follows the chain as printed.
B1: 12D6-24-L4H4 (antibody, human IgG1, V domains shown)
VH: QVQLVQSGAEVKKPGASVKVSCKASGYTFTGYNMNWVRQAPGQGLEWMGNIDPYYGNTNYNQKFKGRTTLTADTSTSTAYMELSSLRSDDTAVYYCARLGLQLYALDYWGQGTLVTVSS
VL: DIVLTQSPDSLAVSLGERATINCRASQSLVHSNANTYLHWYQQKPGQPPKLLIYKLTNRFFGVPDRFSGSGSGTDFTLTISSLQAEDVAVYYCQQSIHVPWTFGQGTKLEIK
B2: 12D6-24 variant L1H4 (antibody, human IgG1, V domains shown)
VH: B1 VH
VL: DIVMTQTPLSLPVTPGEPASISCRSSQSLVHSNANTYLHWYLQKPGQSPQLLIYKLTNRFFGVPDRFSGSGSGTDFTLKISRVEAEDVGVYYCSQSIHVPWTFGGGTKVEIK
B3: 12D6-24 variant L4H2 (antibody, human IgG1, V domains shown)
VH: B1 VH with A16S, R67K, T74K
VL: B1 VL
B4: 12D6-24-L4H1 (antibody, human IgG1, V domains shown)
VH: B1 VH with T68V, L70M, A72T, S84R, L114T
VL: B1 VL
B5: antibody 12D6-24 (antibody, human IgG1, kappa, V domains shown)
VH: B1 VH with T68V, L70M, A72T, S84R, L114T
VL: DIVMTQTPLSLPVTPGEPASISCRSSQSLVHSNANTYLHWYLQKPGQSPQLLIYKLTNRFFGVPDRFSGSGSGTDFTLKISRVEAEDVGVYYCSQSIHVPWTFGGGTKVEIKR
notes: also called mAb 12D6-24; unmodified 12D6-24
B6: 12D6-24 variant L2H1 (antibody, human IgG1, V domains shown)
VH: B1 VH with T68V, L70M, A72T, S84R, L114T
VL: EIVMTQSPATLSVSPGERATLSCRASQSVSSNLAWYQQKPGQAPRLLIYKLTNRFFGIPARFSGSGSGTDFTLTISRVEAEDFAVYYCQQSIHVPWTFGQGTKVEIK
B7: 12D6-24 variant L5H1 (antibody, human IgG1, V domains shown)
VH: B1 VH with T68V, L70M, A72T, S84R, L114T
VL: EIVMTQSPATLSVSPGERATLSCRASQSVSSNLAWYLHWYLQKPGQAPRLLIYKLTNRFFGIPARFSGSGSGTDFTLTISRVEAEDFAVYYCQQSIHVPWTFGQGTKVEIK
B8: 12D6-24 variant L1H2 (antibody, human IgG1, V domains shown)
VH: B1 VH with A16S, R67K, T74K
VL: B2 VL
B9: 12D6-24 variant L3H1 (antibody, human IgG1, V domains shown)
VH: B1 VH with T68V, L70M, A72T, S84R, L114T
VL: EIVMTQSPATLSVSPGERATLSCRSSQSLVHSNANTYQQKPGQAPRLLIYKLTNRFFGIPDRFSGSGSGTDFTLTISRVEAEDFAVYYCQQSIHVPWTFGQGTKVEIK
B10: 12D6-24 variant L2H2 (antibody, human IgG1, V domains shown)
VH: B1 VH with A16S, R67K, T74K
VL: B6 VL
B11: 12D6-24 variant L5H2 (antibody, human IgG1, V domains shown)
VH: B1 VH with A16S, R67K, T74K
VL: B7 VL

Molecular target: T1, human CD40 (human, UniProt P25942 21-193)
T1 construct: also called huCD40; TNFRSF5
Assay: ELISA
Protocol: (§1) An ELISA was performed to confirm that the improved antibodies retained affinity for CD40.

T1 sequence (P25942 21-193 limits assumed): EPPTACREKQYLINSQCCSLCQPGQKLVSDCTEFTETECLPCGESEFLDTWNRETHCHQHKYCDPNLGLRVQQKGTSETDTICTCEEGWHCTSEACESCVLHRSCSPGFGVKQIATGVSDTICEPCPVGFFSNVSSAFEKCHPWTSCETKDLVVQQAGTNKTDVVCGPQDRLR

Binder	Kd
B1	240 nM
B2	230 nM

Molecular target: T1, human CD40
Assay: antigen binding (method not named; ELISA in the rest of Example 2)

Binder	Kapp
B1	0.24 nM
B2	0.22 nM
B3	0.25 nM
B4	0.25 nM

Molecular target: T1, human CD40
Assay: ELISA; first screen of the VL/VH pairs (Table 4), head in nM

Binder	Kd
B5	0.2 nM
B3	0.2 nM
B4	0.2 nM

Molecular target: T1, human CD40
Assay: ELISA; further experiments (Table 6), 4 day titer
Protocol: as §1

Binder	Kd
B3	0.25 nM
B4	0.25 nM

Molecular target: T1, human CD40
Assay: ELISA; further experiments (Table 6 ELISA), reference value in the text
Protocol: as §1

Binder	Kd
B5	0.24 nM

Molecular target: T1, human CD40
Assay: ELISA
Remark: another data set of the same source

Binder	Kd
B6	> 100 nM
B7	1.6 nM
B8	0.6 nM
B9	> 100 nM
B10	> 100 nM
B11	1.6 nM

— US20200339700A1 (Bristol-Myers Squibb, published 2020)
